The series in a line: self-splicing fitness, log relative to wild type (ln ratio); higher = more splicing; Tetrahymena group I intron in knt gene, E. coli kanamycin selection, DiMSum; sequences stand for … in CUCUCU…GGAGGGAAAAGUUAUCAGGCAUGCACCUGGUAGCUAGUCUUUAAACCAAUAGAUUGCAUCGGUUUAAAAGGCAAGACCGUCAAAUUGCGGGAAAGGGGUCAACAGCCGUUCAGUACCAAGUCUCAGGGGAAACUUUGAGAUGGCCUUGCAAAGGGUAUGGUAAUAAGCUGACGGACAUGGUCCUAACCACGCAGCCAAGUCCUAAGUCAACAGAUCUUCUGUUGAUAUGGAUGCAGUUCACAGACUAAAUGUCGGUCGGGGAAGAUGUAUUCUUCUCAUAAGAUAUAGUCGGACCUCUCCUUAAUGGGAGCUAGCGGAUGAAGUGAUGCAACACUGGAGCCGCUGGGAACUAAUUUGUAUGCGAAAGUAUAUUGAUUAGUUUUGGAGUACUCGUGGUCG
The gist of the method:
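Fitness was computed with DiMSum as the error-weighted combination of replicate fold changes, kanamycin versus none, each normalised to wild type. The library randomised all eight intron nucleotides of the P1ex region, with the intron placed in the knt kanamycin-resistance gene on pET-22b(+) in E. coli BL21(DE3). Six replicate transformations were grown overnight at 37°C or 30°C on LB agar with or without 25 μg/mL kanamycin, plus 100 μg/mL carbenicillin, 50 μM IPTG and 0.2% rhamnose. Pooled colonies were amplicon-sequenced on an Illumina HiSeq 2500.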

± gives the uncertainty stated by the source.

As for GGAUAGCAAUAUUACGAUGU, the “self-splicing fitness (ln)” value is -0.882 ± 0.084 (30 °C) and -0.0369 ± 0.11 (37 °C). CUGGAGCAAUAUUACGGAGG: for the setting “37 °C”, the “self-splicing fitness (ln)” value is -2.18 ± 0.36. In the case of UACGAGCAAUAUUACGAUUU, the “self-splicing fitness (ln)” value was -2.88 ± 0.17 (30 °C) and -1.3 ± 0.16 (37 °C).

Take GCAUAGCAAUAUUACGGCAA: the “self-splicing fitness (ln)” value is, setting by setting: (30 °C) -1.49 ± 0.18; (37 °C) -0.271 ± 0.17. For UUGCAGCAAUAUUACGAUGA, the “self-splicing fitness (ln)” value was -0.402 ± 0.097 (30 °C) and 0.367 ± 0.12 (37 °C).

For GGACAGCAAUAUUACGCAAA, the “self-splicing fitness (ln)” value by setting is: (30 °C) -1.19 ± 0.13; (37 °C) -0.67 ± 0.12. On to GUGCAGCAAUAUUACGUGCG, for which the “self-splicing fitness (ln)” value (30 °C) was -2.56 ± 0.1 and the “self-splicing fitness (ln)” value (37 °C) was -2.06 ± 0.14.

Take AACCAGCAAUAUUACGUCAA: the “self-splicing fitness (ln)” value is -1.38 ± 0.062 (30 °C) and -1.06 ± 0.074 (37 °C). For CCCUAGCAAUAUUACGUGCA, in that order: -3.99 ± 0.18 and -2.92 ± 0.14.

Take UGUGAGCAAUAUUACGAAUG: the “self-splicing fitness (ln)” value is -2.16 ± 0.1 (30 °C) and -0.688 ± 0.097 (37 °C).

As to GUCUAGCAAUAUUACGUAUU, the “self-splicing fitness (ln)” value is -0.645 ± 0.086 (30 °C) and -0.635 ± 0.095 (37 °C). For CGCGAGCAAUAUUACGUCGA, in that order: -4.28 ± 0.46 and -2.73 ± 0.24. As to CCGGAGCAAUAUUACGCUGA, the “self-splicing fitness (ln)” value reads like this: (30 °C) -1.42 ± 0.29; (37 °C) -1.75 ± 0.45. On to UUCCAGCAAUAUUACGCUGG, for which the “self-splicing fitness (ln)” value was -3.73 ± 0.27 (30 °C) and -2.51 ± 0.31 (37 °C). For CGAAAGCAAUAUUACGCGAG, in that order: -2.88 ± 0.25 and -2.26 ± 0.22.

UGGGAGCAAUAUUACGUUAG: the “self-splicing fitness (ln)” value is -3.58 ± 0.32 (30 °C) and -2.13 ± 0.23 (37 °C). UCUGAGCAAUAUUACGGGGU: the “self-splicing fitness (ln)” value is -4.62 ± 0.32 (30 °C) and -2.28 ± 0.25 (37 °C). For UAGUAGCAAUAUUACGGCGG, in that order: -0.668 ± 0.085 and -0.639 ± 0.11. Regarding GUAAAGCAAUAUUACGGGCG, the “self-splicing fitness (ln)” value was -0.457 ± 0.12 (30 °C) and -0.386 ± 0.12 (37 °C). Take ACAUAGCAAUAUUACGUCGU: the “self-splicing fitness (ln)” value reads like this: (30 °C) -2.92 ± 0.11; (37 °C) -2.33 ± 0.13. With AGGCAGCAAUAUUACGUAUA, the “self-splicing fitness (ln)” value runs as follows: (30 °C) -3.08 ± 0.15; (37 °C) -1.56 ± 0.12. As to AAUGAGCAAUAUUACGACUU, the “self-splicing fitness (ln)” value by setting is: (30 °C) -0.422 ± 0.091; (37 °C) 0.263 ± 0.1. In the case of CCCGAGCAAUAUUACGACAA, the “self-splicing fitness (ln)” value is, setting by setting: (30 °C) -2.78 ± 0.3; (37 °C) -2.85 ± 0.41. With UCGCAGCAAUAUUACGCAGG, the “self-splicing fitness (ln)” value runs as follows: (30 °C) -3.59 ± 0.2; (37 °C) -2.2 ± 0.19. Turning to UUCUAGCAAUAUUACGAUUU, the “self-splicing fitness (ln)” value is, setting by setting: (30 °C) -1.54 ± 0.16; (37 °C) -1.33 ± 0.15. In the same order, the values of ACAUAGCAAUAUUACGUAUA are -3.09 ± 0.22 and -1.78 ± 0.21. As to AAGAAGCAAUAUUACGGAAC, the “self-splicing fitness (ln)” value (37 °C) was -2.58 ± 0.45.

For GCUAAGCAAUAUUACGGAAC, the “self-splicing fitness (ln)” value is -1.46 ± 0.093 (30 °C) and -0.743 ± 0.1 (37 °C). Regarding GACAAGCAAUAUUACGGUUA, the “self-splicing fitness (ln)” value (30 °C) was -0.281 ± 0.079 and the “self-splicing fitness (ln)” value (37 °C) is -0.186 ± 0.077.

For GCCGAGCAAUAUUACGUCUU, the “self-splicing fitness (ln)” value is -2.71 ± 0.16 (30 °C) and -1.82 ± 0.14 (37 °C). For the sequence CGUAAGCAAUAUUACGUGAA, the “self-splicing fitness (ln)” value runs as follows: (30 °C) -3.19 ± 0.14; (37 °C) -1.61 ± 0.15.

With AAUAAGCAAUAUUACGUUGC, the “self-splicing fitness (ln)” value runs as follows: (30 °C) -3.52 ± 0.19; (37 °C) -2.53 ± 0.2. As for CCACAGCAAUAUUACGGGGC, the “self-splicing fitness (ln)” value reads like this: (30 °C) -3.95 ± 0.14; (37 °C) -2.43 ± 0.16. In the same order, the values of UGAAAGCAAUAUUACGUGGC are -3.37 ± 0.17 and -2.73 ± 0.25. For UUAGAGCAAUAUUACGAUGU, the “self-splicing fitness (ln)” value (30 °C) is -2.59 ± 0.41 and the “self-splicing fitness (ln)” value (37 °C) is -2.43 ± 0.41. CGACAGCAAUAUUACGACAC: the “self-splicing fitness (ln)” value runs as follows: (30 °C) -1.96 ± 0.13; (37 °C) -1.97 ± 0.22. In the case of GGGGAGCAAUAUUACGGUAC, the “self-splicing fitness (ln)” value (37 °C) worked out at 0.506 ± 0.25. As to CAGGAGCAAUAUUACGGUAG, the “self-splicing fitness (ln)” value is, setting by setting: (30 °C) -0.725 ± 0.12; (37 °C) -0.902 ± 0.13.

For the origin of these results see the supplement of paper PMC7877785.
